The source of these data is paper PMC7644671 (Nature structural & molecular biology, 2020).

The data set concerns the molecule itself. In words: cryo-EM structure.

B1: mouse DUOX1 (enzyme, mouse (Mus musculus), UniProt A2AQ92 20-1551, looked up)
chain: GAQNSISWEVQRFDGWYNNLMEHRWGSKGSRLQRLVPASYADGVYQPLKEPYLPNPRHLSNRVMRGSAGQPSLRNRTVLGVFFGYHVLSDLVSVETPGCPAEFLNIYIPHGDPVFDPDKRGNVVLPFQRSRWDRNTGQSPSNPRDQSNQVTGWLDGSAIYGSSHSWSDTLRSFSGGQLASGPDPAFPSDSQSSLLMWMAPDPSTGQGGPRGVYAFGAQRGNREPFLQALGLLWFRYHNLCARKLAQEHPHWGDEELFQHARKRVIATYQNIAMYEWLPSFLKQTPPEYPGYRPFLDPSISPEFVVASEQFLSTMVPSGVYMRNASCHFQGIPSHNSSVSGALRVCNSYWSREHPKLQRAEDVDALLLGMASQIAEREDHVVVEDMQDFWPGPLKFSRTDYLASCLQRGRDLGLPSYTKAREALGLSPISHWQDINPALSRSNGTVLEATAALYNQDLSRLELLPGGLLESHGDPGPLFSTIVLDQFVRLRDGDRYWFENTRNGLFSKEEIAEIRNTSLRDILVAVTNVDPSALQPNVFFWLAGDPCPQPSQLSAKGLPACAPLFIRDYFEGSGFGFGLTIGTLCCFPLVSLLSAWIVARLRKRNFKRLQRQDRQSIMSEKLVGGVEALEWQGRNEPCRPVLVHLQPGQIRVVDGRLTVLRTIQLRPPQQVNLILSSNRGRRTLLLKIPKEYDLVLLFNMEEERQALVENVRGALKENGLSFQEWELREQELMRAAVTRQQRGHLLETFFRHLFSQVLDINQADAGTLPLDSSTKVREALTCELSRAEFADSLGLKPQDMFVESMFSLADKDGNGYLSFREFLDILVVFMKGSPEEKSRLMFRMYDFDGNGLISKDEFIRMLRSFIEISNNCLSKAQLAEVVESMFRESGFQDKEELTWEDFHFMLRDHDSDLRFTQLCVKGVEVPEVIKNLCRRASYISQEKICPSPRMSAHCARNNMKTASSPQRLQCPMDTDPPQEIRRRFGKKVTSFQPLLFTEAHREKFQRSRRHQTVQQFKRFIENYRRHIGCVAVFYTITGALFLERAYYYAFAAHHSGITDTTRVGIILSRGTAASISFMFSYILLTMCRNLITFLRETFLNRYIPFDAAVDFHRLIASTAIILTVLHSAGHVVNVYLFSISPLSVLSCLFPGLFHDDGSEFPQKYYWWFFQTVPGLTGVLLLLALAIMYVFASHHFRRRSFRGFWLTHHLYIFLYILLIIHGSFALIQMPRFHIFFLVPAIIYVGDKLVSLSRKKVEISVVKAELLPSGVTHLRFQRPQGFEYKSGQWVRIACLALGTTEYHPFTLTSAPHEDTLSLHIRAAGPWTTRLREIYSPPTGDTCARYPKLYLDGPFGEGHQEWHKFEVSVLVGGGIGVTPFASILKDLVFKSSVSCQVFCKKIYFIWVTRTQRQFEWLADIIREVEENDRQDLVSVHIYITQLAEKFDLRTTMLYICERHFQKVLNRSLFTGLRSITHFGRPPFEPFFNSLQEVHPQVRKIGVFSCGPPGMTKNVEKACQLINRQDRTHFSHHYENF
modifications: sugar densities at glycosylation sites N94, N324 and N534
As to B1, the “stoichiometry N” value worked out at 2.

In general, stoichiometry N refers to the number of molecules, sites or subunits per partner or assembly.
